Assay results taken from patent US20230051538A1 (UNIVERSITY OF BRITISH COLUMBIA, published 2023).
Read-outs that look alike come from different tables or passages of the source. Where no end group is shown, it is not given here.

How the values were obtained:
[1] = target: T1, alpha-synuclein oligomers (UniProt P37840 1-140); experiment: cell-based or functional assay
[2] = target: T2, alpha-synuclein sonicated preformed fibrils (soluble fibrils) (human, UniProt P37840 1-140); experiment: cell-based or functional assay
[3] = target: alpha-synuclein in Lewy Body Disease (LBD/DLB) brain (human, UniProt P37840 1-140); experiment: dot blot signal on LBD brain extract over control brain extract
[4] = target: T3, Bovine serum albumin (BSA) (bovine, UniProt P02769 25-607); experiment: indirect ELISA
T3 construct: carrier protein alone as ELISA control

[5] = target: T4, cyclo(CGGGEKTKGG)-BSA (also: conjugated to BSA via maleimide-based coupling); experiment: indirect ELISA
T4 construct: also called ASPEP(3,2)-C-BSA
T4 peptide: cyclo(CGGGEKTKGG)

[6] = target: T5, Human Transferrin (human, UniProt P02787 20-698); experiment: indirect ELISA
T5 construct: irrelevant antigen in ELISA; also called HT

[7] = target: T6, cyclo(CGGGGEKTKGG)-BSA (also: conjugated to BSA); experiment: indirect ELISA
T6 construct: also called ASPEP(4,2)-C-BSA
T6 peptide: cyclo(CGGGGEKTKGG)

[8] = target: T7, human complement factor H (HCFH) (human, UniProt P08603 19-1231); experiment: indirect ELISA
T7 construct: unrelated protein in ELISA

[9] = target: T2, alpha-synuclein sonicated preformed …
[10] = target: T1, alpha-synuclein oligomers; experiment: SPR, antibody immobilized, kinetic fitting, 1:1 model; antigen form: oligomers
[11] = target: T1, alpha-synuclein oligomers; experiment: SPR, antibody immobilized, kinetic fitting, 1:1 model
[12] = target: T2, alpha-synuclein sonicated preformed …; experiment: as above
[13] = target: T2, alpha-synuclein sonicated preformed …; experiment: SPR, antibody immobilized (~5000 RU), serial dilutions of analyte
[14] = target: T3, Bovine serum albumin (BSA); experiment: indirect ELISA; remark: listed apart in the source
[15] = target: T4, cyclo(CGGGEKTKGG)-BSA; experiment: indirect ELISA
[16] = target: T8, Linear CGGGEKTKGG-BSA (also: conjugated to BSA); experiment: indirect ELISA
T8 construct: linear peptide-BSA screening antigen; also called ASPEP(3,2)-L-BSA
T8 peptide: CGGGEKTKGG

[17] = target: T5, Human Transferrin; experiment: indirect ELISA; remark: listed apart in the source
[18] = target: T6, cyclo(CGGGGEKTKGG)-BSA; experiment: indirect ELISA
[19] = target: T7, human complement factor H (HCFH); experiment: indirect ELISA; remark: listed apart in the source
[20] = target: T9, cyclo(CGGGGEKTKGG), free (cyclized via a head-to-tail (C-G) amide bond); experiment: indirect ELISA
T9 construct: free cyclic 4,2 construct; also called 4,2-Free-C
T9 peptide: CGGGGEKTKGG

[21] = target: T10, cyclo(CGGTKEQGG)-BSA (also: conjugated to BSA via maleimide-based coupling); experiment: indirect ELISA
T10 construct: also called (2,2)-C-BSA; (2, 2) C-BSA
T10 peptide: cyclo(CGGTKEQGG)

[22] = target: T11, cyclo(CGTKEQGGGG)-BSA (also: conjugated to BSA via maleimide-based coupling); experiment: indirect ELISA
T11 construct: also called (1,4)-C-BSA; 1,4-C-BSA
T11 peptide: cyclo(CGTKEQGGGG)

[23] = target: T12, cyclo(CGGTKEQGGGG)-BSA (also: conjugated to BSA via maleimide-based coupling); experiment: indirect ELISA
T12 construct: also called (2,4)-C-BSA; 2,4-C-BSA
T12 peptide: cyclo(CGGTKEQGGGG)

[24] = target: T1, alpha-synuclein oligomers; experiment: Millipore SMC, antibody-coated magnetic particles, detection with labeled 4D6
[25] = target: T2, alpha-synuclein sonicated preformed …; experiment: as above
[26] = target: T3, Bovine serum albumin (BSA); experiment: indirect ELISA; remark: listed apart in the source
[27] = target: T13, cyclo(CGGTKEQGGGG), free (cyclized via a head-to-tail (C-G) amide bond); experiment: indirect ELISA
T13 construct: free cyclic peptide, not conjugated; also called (2,4)-C-FREE
T13 peptide: CGGTKEQGGGG

[28] = target: T5, Human Transferrin; experiment: indirect ELISA; remark: listed apart in the source
[29] = target: T14, HSA (human, UniProt P02768 25-609); experiment: indirect ELISA
T14 construct: irrelevant antigen in ELISA; read as human serum albumin; also called Hum; SA; HAS

[30] = target: T12, cyclo(CGGTKEQGGGG)-BSA; experiment: indirect ELISA
[31] = target: T5, Human Transferrin; experiment: indirect ELISA; remark: listed apart in the source
[32] = target: T14, HSA; experiment: indirect ELISA; remark: listed apart in the source
[33] = target: T10, cyclo(CGGTKEQGG)-BSA; experiment: indirect ELISA
[34] = target: T15, Linear CGGTKEQGGGG-BSA (also: conjugated to BSA); experiment: indirect ELISA
T15 construct: linear peptide-BSA screening antigen; also called (2,4)-L-BSA; 2,4-L-BSA
T15 peptide: CGGTKEQGGGG

[35] = target: T11, cyclo(CGTKEQGGGG)-BSA; experiment: indirect ELISA
[36] = target: T12, cyclo(CGGTKEQGGGG)-BSA; experiment: indirect ELISA
[37] = target: T16, Linear CGGTKEQGG-BSA (also: conjugated to BSA); experiment: indirect ELISA
T16 construct: linear peptide-BSA screening antigen; also called (2,2)-L-BSA; (2, 2) L-BSA
T16 peptide: CGGTKEQGG

[38] = target: T3, Bovine serum albumin (BSA); experiment: indirect ELISA; remark: listed apart in the source
[39] = target: T17, cyclo(CGTKEQGGGG), free (cyclized via a head-to-tail (C-G) amide bond); experiment: indirect ELISA
T17 construct: free cyclic peptide, not conjugated; also called (1,4)-C-Free
T17 peptide: CGTKEQGGGG

[40] = target: T17, cyclo(CGTKEQGGGG), free; experiment: indirect ELISA
[41] = target: T18, Linear CGTKEQGGGG-BSA (also: conjugated to BSA); experiment: indirect ELISA
T18 construct: linear peptide-BSA screening antigen; also called (1,4)-L-BSA; 1,4-L-BSA
T18 peptide: CGTKEQGGGG

T7 sequence (P08603 19-1231 limits assumed): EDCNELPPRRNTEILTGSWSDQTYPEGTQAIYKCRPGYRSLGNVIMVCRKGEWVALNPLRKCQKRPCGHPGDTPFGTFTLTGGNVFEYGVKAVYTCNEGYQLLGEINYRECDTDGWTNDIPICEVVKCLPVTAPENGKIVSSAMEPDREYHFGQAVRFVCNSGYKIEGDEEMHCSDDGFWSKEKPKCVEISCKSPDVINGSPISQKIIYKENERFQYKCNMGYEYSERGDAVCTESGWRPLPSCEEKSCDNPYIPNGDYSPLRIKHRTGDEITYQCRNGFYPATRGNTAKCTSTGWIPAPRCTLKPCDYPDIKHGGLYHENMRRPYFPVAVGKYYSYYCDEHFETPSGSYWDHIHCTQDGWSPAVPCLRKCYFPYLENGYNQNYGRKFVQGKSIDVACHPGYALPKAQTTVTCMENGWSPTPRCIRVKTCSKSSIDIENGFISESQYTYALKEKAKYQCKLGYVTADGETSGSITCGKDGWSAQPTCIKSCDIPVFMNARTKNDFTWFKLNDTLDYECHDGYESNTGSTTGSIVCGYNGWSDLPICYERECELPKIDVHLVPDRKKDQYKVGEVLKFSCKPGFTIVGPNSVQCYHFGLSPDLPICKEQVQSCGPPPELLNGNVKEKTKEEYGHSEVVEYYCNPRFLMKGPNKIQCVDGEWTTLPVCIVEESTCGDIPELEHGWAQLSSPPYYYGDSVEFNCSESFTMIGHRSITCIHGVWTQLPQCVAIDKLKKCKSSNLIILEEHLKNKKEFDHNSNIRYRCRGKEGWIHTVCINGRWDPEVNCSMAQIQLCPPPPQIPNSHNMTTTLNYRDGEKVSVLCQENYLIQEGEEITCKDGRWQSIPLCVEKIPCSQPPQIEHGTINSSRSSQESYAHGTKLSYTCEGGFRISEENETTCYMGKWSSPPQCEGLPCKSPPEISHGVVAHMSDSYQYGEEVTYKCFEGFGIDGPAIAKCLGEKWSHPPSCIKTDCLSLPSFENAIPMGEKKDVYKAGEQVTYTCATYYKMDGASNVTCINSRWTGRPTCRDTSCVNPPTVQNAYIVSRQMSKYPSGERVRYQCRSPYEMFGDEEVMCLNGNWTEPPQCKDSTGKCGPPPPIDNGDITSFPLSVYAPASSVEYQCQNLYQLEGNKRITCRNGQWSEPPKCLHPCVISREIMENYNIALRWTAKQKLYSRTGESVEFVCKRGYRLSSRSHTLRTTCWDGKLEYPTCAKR
T5 sequence (P02787 20-698 limits assumed): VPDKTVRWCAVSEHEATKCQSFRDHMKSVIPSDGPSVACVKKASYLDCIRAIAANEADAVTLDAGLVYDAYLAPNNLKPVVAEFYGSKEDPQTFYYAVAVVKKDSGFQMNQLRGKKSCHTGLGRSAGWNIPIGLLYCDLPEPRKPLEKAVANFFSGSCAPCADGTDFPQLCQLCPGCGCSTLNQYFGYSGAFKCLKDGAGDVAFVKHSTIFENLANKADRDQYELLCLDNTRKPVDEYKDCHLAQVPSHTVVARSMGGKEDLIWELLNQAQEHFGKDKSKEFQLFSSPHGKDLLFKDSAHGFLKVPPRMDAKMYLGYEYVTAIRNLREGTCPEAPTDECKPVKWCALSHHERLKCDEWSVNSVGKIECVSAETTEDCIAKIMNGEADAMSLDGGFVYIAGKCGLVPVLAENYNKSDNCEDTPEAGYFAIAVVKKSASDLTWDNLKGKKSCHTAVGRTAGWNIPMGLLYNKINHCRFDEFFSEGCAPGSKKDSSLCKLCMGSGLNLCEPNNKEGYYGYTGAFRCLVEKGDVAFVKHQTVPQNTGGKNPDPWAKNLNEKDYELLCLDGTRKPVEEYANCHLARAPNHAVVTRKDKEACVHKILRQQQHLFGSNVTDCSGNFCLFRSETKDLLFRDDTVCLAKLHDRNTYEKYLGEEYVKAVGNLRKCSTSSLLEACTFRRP
T3 sequence (P02769 25-607 limits assumed): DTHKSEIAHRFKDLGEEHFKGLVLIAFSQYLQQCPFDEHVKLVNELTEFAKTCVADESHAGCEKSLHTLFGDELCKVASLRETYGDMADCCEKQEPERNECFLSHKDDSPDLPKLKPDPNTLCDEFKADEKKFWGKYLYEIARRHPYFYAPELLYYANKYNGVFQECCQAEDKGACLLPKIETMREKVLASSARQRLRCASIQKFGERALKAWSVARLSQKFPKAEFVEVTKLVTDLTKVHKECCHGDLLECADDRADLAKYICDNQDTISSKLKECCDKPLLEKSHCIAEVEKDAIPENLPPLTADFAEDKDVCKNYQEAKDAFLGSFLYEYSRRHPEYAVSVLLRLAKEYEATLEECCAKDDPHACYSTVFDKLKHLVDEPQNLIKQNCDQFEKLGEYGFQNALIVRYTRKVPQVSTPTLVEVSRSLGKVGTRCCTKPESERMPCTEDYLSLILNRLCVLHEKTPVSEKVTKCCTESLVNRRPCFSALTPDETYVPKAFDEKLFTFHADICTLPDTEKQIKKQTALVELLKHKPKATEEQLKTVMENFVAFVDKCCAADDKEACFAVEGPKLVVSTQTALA

B1: 3C11 (antibody, V domains shown)
VH: EVQLQQSGAELVKPGASVKLSCTASGFNIKDTYIHWMKQRPEQGLEWIGRIDPANGNTKYDPEFQDKATIAADTSSNTAYLQLSSLTSEDTAVYYCSNWDYFDYWGQGTALTVSS
VL: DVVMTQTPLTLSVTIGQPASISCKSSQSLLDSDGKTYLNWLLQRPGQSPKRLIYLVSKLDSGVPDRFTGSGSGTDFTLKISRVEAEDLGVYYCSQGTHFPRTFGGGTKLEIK
dopaminergic neuron survival, antibody at 50 nM [1]: 89.6 % of the control
endogenous phosphorylated α-syn aggregates in neurons exposed to PFFs, antibody at 0.05 µM [2]: 153 % of the control
Fold of reactivity LBD vs. Control (LBD / Control) [3]: 26.6 fold
ELISA reading [4]: 0.052
ELISA reading [5]: 1.17
ELISA reading [6]: 0.054
ELISA reading [7]: 0.567
ELISA reading [8]: 0.064

B2: 12B12 (antibody, V domains shown)
VH: EVQLQQSGAELVKPGASVKLSCTASGFNIKDTYIHWVKQRPEQGLEWIGRIDPANGNTNYDPKFQDKATITADTSSNTAYLQFSSLTSEDTAVYYCSNWDYFDYWGQGTTLTVSS
VL: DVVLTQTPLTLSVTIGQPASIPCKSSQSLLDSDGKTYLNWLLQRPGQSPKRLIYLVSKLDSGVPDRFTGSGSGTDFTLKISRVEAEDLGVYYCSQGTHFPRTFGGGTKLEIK
dopaminergic neuron survival, antibody at 250 nM [1]: 92.6 % of the control
endogenous phosphorylated α-syn aggregates in neurons exposed to PFFs, antibody at 0.05 µM [2]: 145 % of the control
Kd [9]: 8 nM
Kd [10]: 985 nM
Fold of reactivity LBD vs. Control (LBD / Control) [3]: 20.3 fold
koff [11]: 0.0013 s⁻¹
kon [11]: 1320 M⁻¹ s⁻¹
koff [12]: 2.09e-05 s⁻¹
kon [12]: 2530 M⁻¹ s⁻¹
ELISA reading [4]: 0.055
ELISA reading [5]: 1.28
ELISA reading [6]: 0.045
ELISA reading [7]: 0.851
ELISA reading [8]: 0.059
fold binding affinity, soluble fibril relative to monomer [13]: > 10 fold
fold binding affinity, soluble fibril relative to tetramer [13]: > 20 fold

B3: 11B6 (antibody, V domains shown)
VH: QVQLQQSGAELMKPGASVKISCKATGYTFSSYWVEWVKLRPGHGLEWIGEIFPGSGSANYNEKFKGKATFTADTSSNTAYMQLSSLTSEDSAVYYCTSRWYPDYFEYWGQGTTLTVSS
VL: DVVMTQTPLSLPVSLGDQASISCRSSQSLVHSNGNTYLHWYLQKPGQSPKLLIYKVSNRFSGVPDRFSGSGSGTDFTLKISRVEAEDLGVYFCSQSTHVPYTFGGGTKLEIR
ELISA reading [14]: 0.041
ELISA reading [15]: 0.047
ELISA reading [16]: 0.044
ELISA reading [17]: 0.051
ELISA reading [18]: 1.59
ELISA reading [19]: 0.042
ELISA reading [20]: 1.27
dopaminergic neuron survival, antibody at 250 nM [1]: 81 % of the control

B4: 12G1 (antibody, V domains shown)
VH: QIQLVQSGPELRKPGETVRISCKASGYTFTTAGMQWVQKMPGKGLKWIGWINTHSGVPKYAEDFKGRFAFSLETSASTAYLQISNLKNEDTATYFCARTSWAPYWGQGTLVTVSA
VL: not shown
ELISA reading [21]: 1.61
ELISA reading [22]: 2.07
ELISA reading [23]: 0.756
dopaminergic neuron survival, antibody at 250 nM [1]: 90.6 % of the control
endogenous phosphorylated α-syn aggregates in neurons exposed to PFFs, antibody at 0.05 µM [2]: 148 % of the control
fold selectivity for oligomers versus monomers (from LLoQ) [24]: 35000 fold
fold selectivity for fibrils versus monomers (from LLoQ) [25]: 175000 fold
Kd [11]: 1610 nM
koff [11]: 0.00155 s⁻¹
kon [11]: 966 M⁻¹ s⁻¹
Kd [12]: 20 nM
koff [12]: 5.62e-05 s⁻¹
kon [12]: 2820 M⁻¹ s⁻¹
ELISA reading [26]: 0.06
ELISA reading [27]: 0.437
ELISA reading [28]: 0.071
ELISA reading [29]: 0.052
ELISA reading [30]: 1.01
fold binding affinity, soluble fibril relative to monomer [13]: > 50 fold

B5: 2E9 (antibody, V domains shown)
VH: EVKLLESGGGLVQPGGSLKLSCAASGFDFSRYWMNWVRQAPGKGLEWIGEINPHSSTINYAPSLKDKFIISRDNAKNTLYLQMSKVRSEDTALYYCGRGDYVDYWGLGTTLTVSS
VL: DIVMSQSPSSLAVSVGEKVTMSCKSSQSLLYSRNQKNYLAWYQQKPGQSPKLLIYWASTRESGVPDRFTGSGSGTDFTLTISSVKADDLAVYYCQQYYSYPRTFGGGTKLEIK
notes: also called test clone 2E9; test mAb 2E9
ELISA reading [31]: 0.054
ELISA reading [32]: 0.044
Kd [11]: 431 nM
Kd [12]: 9 nM
ELISA reading [33]: 0.047
ELISA reading [34]: 0.048
ELISA reading [35]: 1.91
ELISA reading [36]: 0.055
ELISA reading [37]: 0.051

B6: 10D5 (antibody, V domains shown)
VH: EVQLQQSGAELVRPGALVKLSCKGSGFNIKDYYMSWVKQRPEQGLEWIGWIDPENDNTIYDSKFQGKASITADTSSNTAYLQFSSLTPEDTAVYYCAMGGFTYWGQGTLVTVSA
VL: not shown
dopaminergic neuron survival, antibody at 250 nM [1]: 88.9 % of the control
fold selectivity for oligomers versus monomers (from LLoQ) [24]: 9300 fold
fold selectivity for fibrils versus monomers (from LLoQ) [25]: 11200 fold
ELISA reading [38]: 0.066
ELISA reading [31]: 0.06
ELISA reading [32]: 0.065
ELISA reading [39]: 1.25
ELISA reading [33]: 0.064
ELISA reading [35]: 2.04
ELISA reading [40]: 1.25
ELISA reading [36]: 1.95
ELISA reading [37]: 0.045

B7: 9D8 (antibody, V domains shown)
VH: QVTLKESGPGILQPSQTLSLTCSFSGFSLSTSGMGVGWIRQPSGKGLEWLAHIWWDGDKRYNPALRSRLTISKDTSSNQVFLKIASVDTADTATYYCTRIVVPNFLFTYWGQGTLVTVSA
VL: DVLMTQTPLSLPVSLGDQASISCRSSQSIVQSNGNTYLEWYLQKPGQSPNLLIYKVSNRFSGVPDRFSGSGSGTDFTLKISRVEAEDLGVYYCFQGSHVPFTFGSGTKLEIK
ELISA reading [22]: 0.048
ELISA reading [41]: 0.043
ELISA reading [23]: 0.726
dopaminergic neuron survival, antibody at 250 nM [1]: 96.5 % of the control
fold selectivity for oligomers versus monomers (from LLoQ) [24]: 9300 fold
fold selectivity for fibrils versus monomers (from LLoQ) [25]: 93300 fold
ELISA reading [26]: 0.055
ELISA reading [27]: 0.227
ELISA reading [28]: 0.06
ELISA reading [29]: 0.054
ELISA reading [30]: 1.18
